Measurements taken from patent EP1865065A1.
Blank lines part the entries; values can stand above or below the substance they belong to.

Columns and labels:
Experiment in all cases: cell-based or functional assay
[1] = target: murine LFA-3 (CD48) (murine) (UniProt P18181)
[2] = target: murine Intercellular adhesion molecule-1 (ICAM-1, CD54) (murine) (UniProt P13597)
[3] = target: murine B7-1 (CD80) (murine) (UniProt Q00609)
UniProt Q00609, sequence (Q00609 38-306): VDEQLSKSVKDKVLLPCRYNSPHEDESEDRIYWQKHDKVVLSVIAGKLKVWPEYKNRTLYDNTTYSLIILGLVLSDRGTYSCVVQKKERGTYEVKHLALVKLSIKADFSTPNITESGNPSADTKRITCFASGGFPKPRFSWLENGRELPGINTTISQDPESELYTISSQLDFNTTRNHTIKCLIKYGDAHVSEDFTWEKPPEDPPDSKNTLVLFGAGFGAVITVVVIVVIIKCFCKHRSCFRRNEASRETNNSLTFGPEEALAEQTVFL

UniProt P13597, sequence (P13597 28-537): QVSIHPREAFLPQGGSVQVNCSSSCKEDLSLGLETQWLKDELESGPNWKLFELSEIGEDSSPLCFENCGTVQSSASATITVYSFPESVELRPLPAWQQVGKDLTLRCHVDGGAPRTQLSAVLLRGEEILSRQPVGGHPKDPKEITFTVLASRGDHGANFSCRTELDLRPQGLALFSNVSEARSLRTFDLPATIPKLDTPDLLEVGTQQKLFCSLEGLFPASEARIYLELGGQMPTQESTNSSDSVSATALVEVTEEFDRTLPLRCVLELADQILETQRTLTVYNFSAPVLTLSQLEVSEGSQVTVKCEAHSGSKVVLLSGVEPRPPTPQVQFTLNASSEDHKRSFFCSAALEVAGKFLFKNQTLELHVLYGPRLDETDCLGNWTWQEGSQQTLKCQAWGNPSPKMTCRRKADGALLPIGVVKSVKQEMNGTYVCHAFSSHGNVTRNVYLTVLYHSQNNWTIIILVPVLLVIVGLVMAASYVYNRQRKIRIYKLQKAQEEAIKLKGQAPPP
UniProt P18181, sequence (P18181 23-217): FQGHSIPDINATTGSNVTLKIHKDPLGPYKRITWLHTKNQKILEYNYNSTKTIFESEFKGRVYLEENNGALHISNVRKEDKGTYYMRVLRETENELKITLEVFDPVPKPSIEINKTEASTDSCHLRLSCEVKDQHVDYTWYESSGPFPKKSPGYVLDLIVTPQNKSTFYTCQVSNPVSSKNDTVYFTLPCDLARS

reduction of the increased T-cell proliferation (3H-Thymidine) induced by MC38/LFA-3 stimulator cells with Con A [1]: 98%
Substance: Hamster anti-murine CD48 (BCM-1; clone HM48-1) (antibody)

Substance: Hamster anti-murine CD54 (ICAM-1; clone 3E2) (antibody)
reduction of the increased T-cell proliferation (3H-Thymidine) induced by MC38/ICAM-1 stimulator cells with Con A [2]: 88%

inhibition of the increased T-cell proliferation (3H-Thymidine) induced by MC38/B7-1 stimulator cells with Con A [3]: 83%
Substance: Hamster anti-murine CD80 (B7-1; clone 16-10A1) (antibody)
